Source: paper PMC7352323, “Regulation of Actin Filament Length by Muscle Isoforms of Tropomyosin and Cofilin” (International Journal of Molecular Sciences, 2020)

What was measured:
Conditions in all cases: both partners purified
[1] = biological target: T1, F-actin (actin isolated from rabbit pectoral muscle, polymerised) (rabbit, UniProt P68135 1-377); assay: co-sedimentation; dissociation of tropomyosin from the filament by cofilin-2: 3 µM F-actin, 1 µM Tpm1.1 or Tpm3.12, 0-10 µM cofilin-2; tropomyosin/actin densitometric ratio against cofilin-2/actin molar ratio, fit to a modified Hill equation; same gels as for cofilin-2 binding in the presence of tropomyosin
[2] = biological target: T1, F-actin (actin isolated from rabbit …); assay: co-sedimentation; 0-10 µM cofilin-2 with 3 µM F-actin alone or initially saturated with 1 µM Tpm1.1 or Tpm3.12, 20 min at room temperature; 100 mM NaCl, 2 mM MgCl2, 1 mM DTT, pH 7.5; apparent Kapp from the Hill equation, K0 and ω from the McGhee and von Hippel linear lattice model
[3] = biological target: T2, F-actin initially saturated with Tpm1.1 (rabbit | human, UniProt P68135 1-377; P09493 1-284); assay: as above
[4] = biological target: T3, F-actin initially saturated with Tpm3.12 (rabbit | human, UniProt P68135 1-377; P06753 1-285); assay: as above
[5] = biological target: T1, F-actin (actin isolated from rabbit …); assay: as above; remark: listed apart in the source
[6] = biological target: T2, F-actin initially saturated with Tpm1.1; assay: as above; remark: listed apart in the source
[7] = biological target: T3, F-actin initially saturated with Tpm3.12; assay: as above; remark: listed apart in the source

B1: mouse cofilin-2, recombinant, GST tag removed (natural protein)
chain: MASGVTVNDEVIKVFNDMKVRKSSTQEEIKKRKKAVLFCLSDDKRQIIVEEAKQILVGDIGDTVEDPYTSFVKLLPLNDCRYALYDATYETKESKKEDLVFIFWAPESAPLKSKMIYASSKDAIKKKFTGIKHEWQVNGLDDIKDRSTLGEKLGGSVVVSLEGKPL
notes: cofilin-2 (muscle isoform of cofilin), mouse cDNA; MW 18,500 Da printed; The printed MW of 18,500 Da fits the whole protein
- cofilin-2/actin molar ratio at 50% dissociation of Tpm1.1 from F-actin [1]: 0.75 cofilin-2/actin
- cofilin-2/actin molar ratio at 50% dissociation of Tpm3.12 from F-actin [1]: 0.71 cofilin-2/actin
- K0 (affinity for an isolated binding site, linear lattice model) [2]: 0.01 µM⁻¹
- Ka [2]: 5.7e+06 M⁻¹
- ω (cooperativity coefficient, linear lattice model) [2]: 50
- K0 (affinity for an isolated binding site, linear lattice model) [3]: 0.17 µM⁻¹
- Ka [3]: 6.3e+06 M⁻¹
- ω (cooperativity coefficient, linear lattice model) [3]: 12
- K0 (affinity for an isolated binding site, linear lattice model) [4]: 0.21 µM⁻¹
- Ka [4]: 5.8e+06 M⁻¹
- ω (cooperativity coefficient, linear lattice model) [4]: 10
- stoichiometry N [5]: ~1 cofilin-2 per actin
- stoichiometry N [6]: ~1 cofilin-2 per actin
- stoichiometry N [7]: ~1 cofilin-2 per actin
